Experimental findings from PMC6980713 are described below.

The data set addresses T1, HMCES SRAP domain (SRAPd) (Homo sapiens, UniProt Q96FZ2 1-270).
T1 sequence: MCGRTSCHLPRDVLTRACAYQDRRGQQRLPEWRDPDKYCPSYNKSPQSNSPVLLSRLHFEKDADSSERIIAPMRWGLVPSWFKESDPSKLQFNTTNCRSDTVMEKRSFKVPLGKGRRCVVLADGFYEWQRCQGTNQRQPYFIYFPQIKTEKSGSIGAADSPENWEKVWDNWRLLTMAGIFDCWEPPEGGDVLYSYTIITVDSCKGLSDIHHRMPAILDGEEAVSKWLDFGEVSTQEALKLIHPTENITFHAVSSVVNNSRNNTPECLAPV
As to the kind of experiment: X-ray crystallography.

B1: P5nt palindromic DNA (dsDNA)
DNA 1: CAACGTTGTTTTT
DNA 2: CAACGTTGTTTTT
As to B1, the binding result is reported as “binds”.
